Molecular target: human 4-1BB expressed with a C-terminal myc-myc-hexahistidine tag (h4-1BB.mmH) (human)
Test: blocking ELISA, 0.25 nM h4-1BB-mmh binding to coated 6His-Flag-h4-1BBL

human 4-1BB expressed with a C-terminal myc-myc-hexahistidine tag (h4-1BB.mmH) (human), sequence (chain, as listed by the source limits assumed): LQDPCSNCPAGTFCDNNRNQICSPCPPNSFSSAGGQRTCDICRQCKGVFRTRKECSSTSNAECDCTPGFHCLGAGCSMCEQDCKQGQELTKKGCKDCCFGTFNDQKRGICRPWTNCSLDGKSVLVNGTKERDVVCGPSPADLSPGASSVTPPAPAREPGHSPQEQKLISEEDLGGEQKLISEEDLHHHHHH

Row | % Blocking at 100 nM mAb [%] | Substance
1 | -8 | Isotype Control 1 (antibody)
2 | -11 | Isotype Control 2 (antibody)
